Measured values taken from patent publication US20030113711A1, “Protein kinase peptide substrate determination using peptide libraries” (priority 2001, published 2003).

Columns and labels:
[1] = system: CC[C@H](C)[C@H](NC(=O)[C@H](CCC(=O)O)NC(=O)[C@H](CCC(=O)O)NC(=O)[C@H](Cc1c[nH]cn1)NC(=O)[C@H](C)NC(=O)[C@H](CCCNC(=N)N)NC(=O)CCCCCNC(=O)CCCC[C@@H]1SC[C@@H]2NC(=O)N[C@@H]21)C(=O)N[C@@H](Cc1ccc(O)cc1)C(=O)N[C@@H](Cc1c[nH]cn1)C(=O)N[C@@H](Cc1ccccc1)C(=O)N[C@@H](Cc1ccccc1)C(=O)N[C@@H](Cc1ccccc1)C(=O)N[C@@H](C)C(=O)N[C@@H](CCCCN)C(=O)N[C@@H](CCCCN)C(=O)N[C@@H](CCCCN)C(N)=O; test: Two-substrate kinetic comparison with known substrate, peptide and ATP varied simultaneously; format: biochemical; conditions: other: ErbB-2; peptide and ATP concentrations varied simultaneously, two-substrate fit
Procedure: (§1) In a separate experiment, the kinetic parameters of both peptide number 1 shown in Table 2, and a peptide with the sequence Biotin-Ahx-G-G-M-E-D-I-Y-F-E-F-M-G-G-K-K-K-amide (SEQ ID NO: 17), which has been previously identified as an ErbB-2 substrate (Jan et. al., (2000), Biochemistry 39: 9786-803), were determined and compared. In this experiment, both peptide and ATP concentrations were varied, and the resulting data was simultaneously fit to an equation representing a two-substrate enzyme reaction using SIGMAPLOT®. Data was collected using the kinases ErbB-2, ErbB-4, and EGFR. The results of this experiment are shown in Table 3 and indicate that for all three kinases tested, peptide number 1 shown in Table 2 is kinetically at least equivalent (based on kcat/Km values) to the known peptide substrate identified by Jan et al.

[2] = system: CC[C@H](C)[C@H](NC(=O)[C@H](CC(=O)O)NC(=O)[C@H](CCC(=O)O)NC(=O)[C@H](CCSC)NC(=O)CNC(=O)CNC(=O)CCCCCNC(=O)CCCC[C@@H]1SC[C@@H]2NC(=O)N[C@@H]21)C(=O)N[C@@H](Cc1ccc(O)cc1)C(=O)N[C@@H](Cc1ccccc1)C(=O)N[C@@H](CCC(=O)O)C(=O)N[C@@H](Cc1ccccc1)C(=O)N[C@@H](CCSC)C(=O)NCC(=O)NCC(=O)N[C@@H](CCCCN)C(=O)N[C@@H](CCCCN)C(=O)N[C@@H](CCCCN)C(N)=O; test: as above; format: biochemical; conditions: other: ErbB-2; peptide and ATP concentrations varied simultaneously, two-substrate fit
Procedure: as §1

Substance: ErbB-2 (Homo sapiens)
- Km [1]: 58 µM
- kcat [1]: 0.0233 s⁻¹
- kcat/Km [1]: 417 M⁻¹ s⁻¹
- Km [2]: 157 µM
- kcat [2]: 0.0367 s⁻¹
- kcat/Km [2]: 233 M⁻¹ s⁻¹
